In the supplement of paper PMC12042874 one finds amyloid nucleation score data, which are given here for 103 substances.

± gives the uncertainty stated by the source.

This data set is described as follows: amyloid nucleation score (Sup35N fusion, yeast selection) (log enrichment); library NNK1; higher = more nucleation; inactive = no reads after selection. The method, boiled down:
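Sup35N was fused to peptides of 20 random codons and expressed in psi-negative yeast, which were induced with 100 μM copper sulfate for 24 hours and then grown on medium lacking adenine and uracil for 7 days at 30°C. Plasmid inserts from input and output were sequenced on Illumina. The nucleation score is the DiMSum log enrichment of output over input reads, centred on the mode score of non-aggregating sequences. Sequences with under 100 input reads were left out, and random libraries had three technical output replicates.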

VRHDITARERLSGLWQ came in with an amyloid nucleation score of -0.047 ± 1.1.
Next, TDLMLYYCYSAVPCWDFPAS: 0.073 ± 1.
VKCGLG displayed an amyloid nucleation score of 0.696 ± 0.84.
LTLFLCISRLPGTPTLYWVL displayed an amyloid nucleation score of 0.752 ± 0.62.
Regarding VNAMSLLILDAVLDKEQW, the amyloid nucleation score was 0.921 ± 1.
Consider QRMFFYNIIVWNVN, for which the amyloid nucleation score is 2.79 ± 0.14.
The same measure for SSKLDVCEFADDGQLVFGVG: -0.394 ± 0.61.
VWWHYLSLYAIWYSYVRLYV showed an amyloid nucleation score of -0.097 ± 0.52.
The substance AGLWYNWRECSFHRVVVGYP had an amyloid nucleation score of 0.737 ± 0.55.
In the case of EGRLTVE, the amyloid nucleation score is -0.011 ± 0.32.
The same measure for SKLTYLTMPSVGEIHFWNPM: 3.44 ± 0.18; for PEGWYLTNCRAGRFSSR: -0.222 ± 0.39.
With LNSVVTVKWVLKARSLVVRC, the amyloid nucleation score was 1.16 ± 0.88.
The same measure for DWSSRVFPGSLGTKAGSHA: -1.58 ± 1.4; for SDSGPTALNVYFPGTCQGNS: “inactive”; for QMREFCLNACSINPRFLWAS: 1.51 ± 0.31.
Take SVFSLVYGKN: the amyloid nucleation score was determined as 0.685 ± 0.81.
Take VLNYHLH: the amyloid nucleation score was -0.569 ± 0.79.
Regarding HTKTLAFHIILTIILRCMFL, the amyloid nucleation score amounted to 0.713 ± 0.34.
The substance MFRWHVLGKKITP came in with an amyloid nucleation score of -0.067 ± 0.37.
Next, WAAFLVMDGWICDQAYMTMR: “inactive”.
The substance CRLISCDRFRSTRSKG registered an amyloid nucleation score of 0.016 ± 0.52.
The substance KRLWLKLSTVE displayed an amyloid nucleation score of 0.32 ± 0.32.
The substance KPYIFYFINVYCEA came in with an amyloid nucleation score of 5.917 ± 0.056.
YMGLYWLDRRMICMQLLWTL registered an amyloid nucleation score of 2.37 ± 0.4.
Regarding VRKNSERGVK, the amyloid nucleation score is -0.591 ± 0.4.
TWSACICKRMVLPCDFQNGS registered an amyloid nucleation score of 0.808 ± 0.9.
Substance NMFTFLSKRR gave an amyloid nucleation score of -0.928 ± 0.4.
Next, YYFIFII: 4.79 ± 0.074; GREMYRLLHLNVEYTHGTRY: 3.79 ± 0.075; EIKISSDGTVSMARGRWCQG: 6.615 ± 0.05.
The substance PWNLLGKIVTFV gave an amyloid nucleation score of 1.09 ± 0.94.
The same measure for LYCRNRCRACCKRFTFK: “inactive”; for NHYGSVAGLPPNNHWVSFCV: -0.373 ± 0.99; for TNVYESSVSFVMMGS: 0.364 ± 0.26.
Next, FHCGMGIF: -0.197 ± 0.32; TIWCVD: 1.01 ± 0.28; YMGYCYNTTKVCKLRQIYAG: 1.71 ± 0.54.
Substance NNQHDGYSIFILDRQPLRAM yielded an amyloid nucleation score of 0.488 ± 0.59.
CLHFFTQTTVWCKHVSSQKV: the amyloid nucleation score was 0.21 ± 0.48.
As for DGSVFFKADRVPLRSSNGGI, the amyloid nucleation score turned out to be 1.2 ± 0.52.
Substance LDETIQSNRDTHLCQFA showed an amyloid nucleation score of -0.29 ± 0.56.
NMVLRFQCLWFCFISIPF registered an amyloid nucleation score of 3.16 ± 0.14.
The same measure for PRVSRRPWLKGFNNVSNQQI: 0.193 ± 1.5; for AVLIRSGCRIRNRRHG: 0.782 ± 0.75; for IWAHVPTSRYEILVVFSG: 0.253 ± 0.45.
The substance YSLGVPSPRKILNVFGGTW came in with an amyloid nucleation score of -0.101 ± 0.47.
The same measure for IWKSSRGPLIGLVVLDIARR: 1.01 ± 0.79; for LSRTKGKAQCLGQVGRMRVL: 0.294 ± 0.54.
The same measure for NLGLDVCEYIVVTWLTNDWS: -0.258 ± 0.51.
The same measure for EKELIK: 1.1 ± 0.61; for TLLELLCEWNTVHKGSP: 0.699 ± 0.3; for VSCGDELVGDRI: 0.171 ± 0.36.
The substance ADTCGCGWDSRRKCFMGGYS showed an amyloid nucleation score of -0.187 ± 0.52.
TTEYRMLGYSVEHLQDCSDR displayed an amyloid nucleation score of -0.527 ± 0.54.
The same measure for LTSGLI: 0.807 ± 1; for HQVNSGDLSNMVLCLMLIRW: 1.84 ± 0.19.
The same measure for RRRCYVVSCCLVALACLACF: 0.412 ± 0.8; for AGRRKSRSAVQREP: 0.528 ± 0.88; for CDNDSMWGYCLTTRMGRFTA: -0.379 ± 0.59.
The same measure for CDGNHSRSLRLIDLGPGF: -0.558 ± 1.1; for TTCVELYVWRGWRGAGGTGV: -1.41 ± 2.4.
Regarding SVWFWFSKGWFSLCWAFFEK, the amyloid nucleation score came to 0.428 ± 1.2.
LYVDGGPCPTAELGQRSYEK: the amyloid nucleation score is -0.17 ± 0.42.
On to VNKRISGTLHDTYEGDLCL, for which the amyloid nucleation score is -0.418 ± 0.75.
Substance EVCCNVKTL returned an amyloid nucleation score of 0.431 ± 0.28.
Next, IRMGCNVHREEVSFTVLAVH: 0.409 ± 0.66.
Next, DIVATYRVRISLNPNVMVTY: 0.466 ± 0.32.
YSLNTSTAWESAAAVTW registered an amyloid nucleation score of 0.196 ± 0.4.
Next, STILPIGWNFDCCITISSCV: 0.372 ± 0.28; ISICYRIEKRE: “inactive”.
As for LFFHL, the amyloid nucleation score amounted to 0.83 ± 0.79.
In turn, TSFYTGFWCPA registered an amyloid nucleation score of -0.232 ± 0.57.
FSLFDGMVLVNS had an amyloid nucleation score of -0.281 ± 0.39.
Next, LEFRPRFSSISYHMIMFVGH: “inactive”.
For the substance HITMRLFTPYLTYNMPMSLK, the amyloid nucleation score turned out to be 0.063 ± 0.24.
Turning to VLTWMDVTDLLGCVLKLSPV, the amyloid nucleation score worked out at 1.36 ± 0.45.
In the case of TEFFGVGLRMKSNGVWWISG, the amyloid nucleation score was -0.65 ± 1.4.
Substance RQLKVARTGLWLGFTFCIQE showed an amyloid nucleation score of 0.24 ± 0.89.
The substance MWVYFVLCKKVAEGVCFIDT returned an amyloid nucleation score of 0.996 ± 0.61.
The substance YKYINSVQIYEHV yielded an amyloid nucleation score of 4.19 ± 0.13.
In turn, TVRLKLINRYPDENRLYTDH had an amyloid nucleation score of 1.3 ± 0.21.
As for QCDRILSDLYNCSGYNRNTK, the amyloid nucleation score is -0.522 ± 0.74.
In turn, HDREDWGDQSWYFILAWIFK displayed an amyloid nucleation score of -0.745 ± 0.44.
In turn, RHTGPIMLSWDAKGRGK had an amyloid nucleation score of 0.622 ± 0.44.
TIAMCISLIGIDSYY came in with an amyloid nucleation score of 0.997 ± 0.29.
In turn, SIRWVIHDRVSRVYDVLRCG registered an amyloid nucleation score of 0.944 ± 0.54.
The same measure for SWWLICYYVSWYFSD: -1.69 ± 1.1; for GWIGCHDWGLRLIAHKMRGR: 0.938 ± 0.88; for EICMRPY: -0.081 ± 1.1.
On to YSECQLSRARD, for which the amyloid nucleation score result was “inactive”.
For GRMLLM, the amyloid nucleation score is -1.25 ± 1.1.
RGINSFLMSFALCWAHWRGV came in with an amyloid nucleation score of -0.072 ± 0.37.
In turn, NDRLFLHGARKLTVLIFVVG registered an amyloid nucleation score of -0.015 ± 0.3.
SSGAYSLSKWYQYRMFSVVL yielded an amyloid nucleation score of -0.771 ± 0.66.
Next, GNSVIDRSFGIFNCYEGLSC: 1.62 ± 0.72.
FNFNFRRFYHVRGFDSRSHL registered an amyloid nucleation score of 0.473 ± 0.58.
WYVLARGMYENTLVGSCSMV yielded an amyloid nucleation score of 6.13 ± 0.088.
In turn, KGTGRLIRLASAWAGMGMHL returned an amyloid nucleation score of -0.332 ± 1.1.
The substance VVIGILSEYATKTNWFCSIY gave an amyloid nucleation score of 1.08 ± 0.2.
Next, FDDCFSLLIVPDSTVITKEQ: 0.444 ± 0.4; LAEYHYGSMFSLNSTYYNLS: 5.91 ± 0.069.
The same measure for FCHYTVLYDSPTLLVRVTWA: -0.681 ± 0.85.
